In paper PMC3076715:
Like-named read-outs stand apart in the source and are kept apart here.

Experiments:
Test in all cases: fluorescence polarization
Dnmt3a-CD [1] = biological target: T1, Dnmt3a-CD (murine, UniProt O88508 608-908)
M.SssI = M.SssI (UniProt P15840 1-386)
Dnmt3a-CD [2] = biological target: T1, Dnmt3a-CD; remark: listed apart in the source
Dnmt3a-CD [3] = biological target: T1, Dnmt3a-CD; remark: listed apart in the source

T1 sequence (O88508 608-908): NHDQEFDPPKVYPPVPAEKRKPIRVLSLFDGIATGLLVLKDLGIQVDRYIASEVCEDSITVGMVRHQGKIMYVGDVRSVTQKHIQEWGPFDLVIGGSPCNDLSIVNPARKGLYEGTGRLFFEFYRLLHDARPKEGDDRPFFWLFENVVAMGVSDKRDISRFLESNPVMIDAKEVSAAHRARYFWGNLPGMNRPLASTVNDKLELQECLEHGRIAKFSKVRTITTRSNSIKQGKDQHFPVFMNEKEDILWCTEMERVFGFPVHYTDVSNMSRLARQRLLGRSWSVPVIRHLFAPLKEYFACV
Sequence of M.SssI (P15840 whole entry): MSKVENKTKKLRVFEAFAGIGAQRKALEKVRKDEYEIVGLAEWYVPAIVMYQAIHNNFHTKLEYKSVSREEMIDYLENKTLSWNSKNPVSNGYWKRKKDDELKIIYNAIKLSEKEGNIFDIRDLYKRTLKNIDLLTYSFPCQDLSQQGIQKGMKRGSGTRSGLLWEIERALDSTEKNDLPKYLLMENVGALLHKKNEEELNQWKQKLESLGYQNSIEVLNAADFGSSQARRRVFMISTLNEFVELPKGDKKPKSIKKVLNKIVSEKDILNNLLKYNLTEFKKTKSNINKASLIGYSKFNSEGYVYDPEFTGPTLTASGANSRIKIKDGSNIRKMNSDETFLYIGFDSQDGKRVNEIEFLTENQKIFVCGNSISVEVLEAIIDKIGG

B1: GCGC/CGCG (dsDNA)
DNA 1: GAGCCAAGCGCACTCTGA
DNA 2: TCAGAGTGCGCTTGGCTC
- binding result (Dnmt3a-CD [1]): binds
- binding result (M.SssI): binds

B2: GCB+C/CGCG (dsDNA)
DNA 1: GAGCCAAGCGCACTCTGA
DNA 2: TCAGAGTGCGCTTGGCTC
modifications: (+)-trans-anti-B[a]PDE-N2-dG at strand 1 position 10
- binding result (Dnmt3a-CD [2]): binds

B3: GCGC/CGMG (dsDNA)
DNA 1: GAGCCAAGCGCACTCTGA
DNA 2: TCAGAGTGCGCTTGGCTC
modifications: 5-methylcytosine at strand 2 position 9
- binding result (Dnmt3a-CD [3]): binds
